Experimental data: patent publication US20230061973A1 (LARIMAR THERAPEUTICS, published 2023)
Where a chain is given by its changes, count along the chain named.

T1: exemplary TAT frataxin fusion molecule (HIV-1, UniProt Q16595 1-210)
T1 construct: in the bridging assays biotinylated and sulfotagged forms were used; also called TAT-FXN fusion molecule; TAT FXN fusion molecule
T1 sequence: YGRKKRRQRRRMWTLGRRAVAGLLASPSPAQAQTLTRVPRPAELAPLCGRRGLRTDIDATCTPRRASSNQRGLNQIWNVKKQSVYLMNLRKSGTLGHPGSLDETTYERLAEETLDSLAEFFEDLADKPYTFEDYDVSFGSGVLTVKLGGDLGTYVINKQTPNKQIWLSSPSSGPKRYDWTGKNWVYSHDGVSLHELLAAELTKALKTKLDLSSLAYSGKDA

B1: antibody 10-9 (antibody, V domains shown)
VH: QSLEESGGDLVKPGASLTLTCTASGFSFSSGYWICWVRQAPGKGLEWIACIYTGDGDTSYASWAKGRFTISKTSSTTVTLQMTSLTVADTAIYFCARDTSGTFYYNLWGPGTLVAVSS
VL: AAVLTQTPSSVSAAVGGTVTISCQSSESVYKTNYLSWFQKKPGQPPKLLIYDASTLASGVPSRFSGSGSGTQFTLTISDLECDDAATYYCAGGYSDDINAFGGGTEVEIK
notes: Rabbit monoclonal
B2: antibody 10-5 (antibody, V domains shown)
VH: B1 VH
VL: DVVMTQTPSPVSAPVGGTVTINCQASQNIYSNLAWYQQKPGQPPKLLIYGASTLASGVSSRFKGSRSGTEFTLTISDLECADAATYYCQSYVYSSSTADTFGGGTKVVVE
notes: Rabbit monoclonal
B3: antibody 12-10 (antibody, V domains shown)
VH: B1 VH
VL: B1 VL
notes: Rabbit monoclonal
B4: antibody 12-8 (antibody, V domains shown)
VH: B1 VH
VL: B1 VL
notes: Rabbit monoclonal
B5: antibody 12-1 (antibody, V domains shown)
VH: B1 VH
VL: B2 VL
notes: Rabbit monoclonal
B6: antibody 12-3 (antibody, V domains shown)
VH: B1 VH
VL: B2 VL
notes: Rabbit monoclonal
B7: antibody 10-4 (antibody, V domains shown)
VH: B1 VH
VL: B2 VL
notes: Rabbit monoclonal
B8: antibody 10-12 (antibody, V domains shown)
VH: B1 VH
VL: B1 VL with A1E, A2L, P8A, E108V, I109V
notes: Rabbit monoclonal
B9: antibody 10-1 (antibody, V domains shown)
VH: B1 VH
VL: B1 VL with A1E, A2L, P8A, E108V, I109V
notes: Rabbit monoclonal

These binders were tested against T1, exemplary TAT frataxin fusion molecule (assay: PK sandwich ELISA in human plasma, antibody as capture, HRP anti-frataxin mAb detection).

Going from B1 to B2, the “Mean OD at plasma conc. 0.400 ng/mL” value falls from 0.077 OD to 0.071 OD.

Going from B3 to B4, the “Mean OD at plasma conc. 0.400 ng/mL” value rises from 0.067 OD to 0.07 OD.

B5 and B6 are the same in “Mean OD at plasma conc. 0.400 ng/mL” value: 0.067 OD for the first, 0.067 OD for the second.

Compared with B7, B8 is lower in “Mean OD at plasma conc. 0.400 ng/mL” value: 0.076 OD for the first, 0.073 OD for the second.

For B9, the “Mean OD at plasma conc. 0.400 ng/mL” value was 0.07 OD.

Compared with B1, B2 is lower in “Mean OD at plasma conc. 0.800 ng/mL” value: 0.1 OD for the first, 0.09 OD for the second.

Compared with B3, B4 is lower in “Mean OD at plasma conc. 0.800 ng/mL” value: 0.089 OD for the first, 0.087 OD for the second.

First: B5
Second: B6
The “Mean OD at plasma conc. 0.800 ng/mL” value of the first is lower: 0.088 OD for the first, 0.091 OD for the second.

B7 and B8 are the same in “Mean OD at plasma conc. 0.800 ng/mL” value: 0.092 OD for the first, 0.092 OD for the second.

With B9 the “Mean OD at plasma conc. 0.800 ng/mL” value was 0.093 OD.

First: B1
Second: B2
The “Mean OD at plasma conc. 1.60 ng/mL” value of the first is higher: 0.14 OD for the first, 0.135 OD for the second.

Going from B3 to B4, the “Mean OD at plasma conc. 1.60 ng/mL” value falls from 0.141 OD to 0.129 OD.

Going from B5 to B6, the “Mean OD at plasma conc. 1.60 ng/mL” value falls from 0.137 OD to 0.133 OD.

Compared with B7, B8 is lower in “Mean OD at plasma conc. 1.60 ng/mL” value: 0.14 OD for the first, 0.136 OD for the second.

For B9, the “Mean OD at plasma conc. 1.60 ng/mL” value was 0.14 OD.

Compared with B1, B2 is higher in “Mean OD at plasma conc. 3.20 ng/mL” value: 0.229 OD for the first, 0.23 OD for the second.

Going from B3 to B4, the “Mean OD at plasma conc. 3.20 ng/mL” value falls from 0.242 OD to 0.225 OD.

Going from B5 to B6, the “Mean OD at plasma conc. 3.20 ng/mL” value falls from 0.229 OD to 0.22 OD.

First: B7
Second: B8
The “Mean OD at plasma conc. 3.20 ng/mL” value of the first is lower: 0.229 OD for the first, 0.23 OD for the second.

For B9, the “Mean OD at plasma conc. 3.20 ng/mL” value was 0.228 OD.

Compared with B1, B2 is higher in “Mean OD at plasma conc. 6.40 ng/mL” value: 0.437 OD for the first, 0.447 OD for the second.

First: B3
Second: B4
The “Mean OD at plasma conc. 6.40 ng/mL” value of the first is higher: 0.447 OD for the first, 0.409 OD for the second.

Going from B5 to B6, the “Mean OD at plasma conc. 6.40 ng/mL” value falls from 0.433 OD to 0.416 OD.

Compared with B7, B8 is higher in “Mean OD at plasma conc. 6.40 ng/mL” value: 0.411 OD for the first, 0.417 OD for the second.

For B9, the “Mean OD at plasma conc. 6.40 ng/mL” value was 0.43 OD.

Going from B1 to B2, the “Mean OD at plasma conc. 12.8 ng/mL” value rises from 0.781 OD to 0.819 OD.

Compared with B3, B4 is lower in “Mean OD at plasma conc. 12.8 ng/mL” value: 0.818 OD for the first, 0.75 OD for the second.

Going from B5 to B6, the “Mean OD at plasma conc. 12.8 ng/mL” value falls from 0.795 OD to 0.767 OD.

Going from B7 to B8, the “Mean OD at plasma conc. 12.8 ng/mL” value rises from 0.757 OD to 0.778 OD.

Compared with B1, B2 is higher in “Mean OD at plasma conc. 25.6 ng/mL” value: 1.49 OD for the first, 1.53 OD for the second.

Compared with B3, B4 is lower in “Mean OD at plasma conc. 25.6 ng/mL” value: 1.51 OD for the first, 1.45 OD for the second.

First: B5
Second: B6
The “Mean OD at plasma conc. 25.6 ng/mL” value of the first is lower: 1.44 OD for the first, 1.45 OD for the second.

Going from B7 to B8, the “Mean OD at plasma conc. 25.6 ng/mL” value falls from 1.41 OD to 1.4 OD.

In the case of B9, the “Mean OD at plasma conc. 25.6 ng/mL” value is reported as 1.44 OD.

Going from B1 to B2, the “Mean OD at plasma conc. 51.2 ng/mL” value rises from 2.77 OD to 2.86 OD.

Going from B3 to B4, the “Mean OD at plasma conc. 51.2 ng/mL” value falls from 2.79 OD to 2.67 OD.

First: B5
Second: B6
The “Mean OD at plasma conc. 51.2 ng/mL” value of the first is lower: 2.67 OD for the first, 2.78 OD for the second.

B7 and B8 are the same in “Mean OD at plasma conc. 51.2 ng/mL” value: 2.7 OD for the first, 2.7 OD for the second.

B9 was tested, and the “Mean OD at plasma conc. 51.2 ng/mL” value was 2.66 OD.

First: B1
Second: B2
The “S/N at plasma conc. 0.400 ng/mL” value of the first is higher: 1.6 for the first, 1.5 for the second.

Going from B3 to B4, the “S/N at plasma conc. 0.400 ng/mL” value rises from 1.4 to 1.5.

Going from B5 to B6, the “S/N at plasma conc. 0.400 ng/mL” value rises from 1.4 to 1.6.

Going from B7 to B8, the “S/N at plasma conc. 0.400 ng/mL” value rises from 1.4 to 1.6.

With B9 the “S/N at plasma conc. 0.400 ng/mL” value was 1.5.

Compared with B1, B2 is lower in “S/N at plasma conc. 0.800 ng/mL” value: 2.1 for the first, 1.9 for the second.

Going from B3 to B4, the “S/N at plasma conc. 0.800 ng/mL” value rises from 1.8 to 1.9.

Compared with B5, B6 is higher in “S/N at plasma conc. 0.800 ng/mL” value: 1.9 for the first, 2.1 for the second.

Going from B7 to B8, the “S/N at plasma conc. 0.800 ng/mL” value rises from 1.6 to 2.

With B9 the “S/N at plasma conc. 0.800 ng/mL” value was 2.

First: B1
Second: B2
The “S/N at plasma conc. 1.60 ng/mL” value of the first is higher: 3 for the first, 2.9 for the second.

Compared with B3, B4 is lower in “S/N at plasma conc. 1.60 ng/mL” value: 2.9 for the first, 2.7 for the second.

First: B5
Second: B6
The “S/N at plasma conc. 1.60 ng/mL” value of the first is lower: 2.9 for the first, 3.1 for the second.

First: B7
Second: B8
The “S/N at plasma conc. 1.60 ng/mL” value of the first is lower: 2.5 for the first, 3 for the second.

B9 was tested, and the “S/N at plasma conc. 1.60 ng/mL” value was 3.

B1 and B2 are the same in “S/N at plasma conc. 3.20 ng/mL” value: 4.9 for the first, 4.9 for the second.

Going from B3 to B4, the “S/N at plasma conc. 3.20 ng/mL” value falls from 4.9 to 4.8.

Going from B5 to B6, the “S/N at plasma conc. 3.20 ng/mL” value rises from 4.9 to 5.1.

Compared with B7, B8 is higher in “S/N at plasma conc. 3.20 ng/mL” value: 4.1 for the first, 5.1 for the second.

For B9, the “S/N at plasma conc. 3.20 ng/mL” value was 5.

Going from B1 to B2, the “S/N at plasma conc. 6.40 ng/mL” value rises from 9.3 to 9.5.

First: B3
Second: B4
The “S/N at plasma conc. 6.40 ng/mL” value of the first is higher: 9.1 for the first, 8.7 for the second.

Going from B5 to B6, the “S/N at plasma conc. 6.40 ng/mL” value rises from 9.2 to 9.7.

First: B7
Second: B8
The “S/N at plasma conc. 6.40 ng/mL” value of the first is lower: 7.3 for the first, 9.3 for the second.

With B9 the “S/N at plasma conc. 6.40 ng/mL” value was 9.3.

Going from B1 to B2, the “S/N at plasma conc. 12.8 ng/mL” value rises from 16.6 to 17.4.

Compared with B3, B4 is lower in “S/N at plasma conc. 12.8 ng/mL” value: 16.7 for the first, 16 for the second.

First: B5
Second: B6
The “S/N at plasma conc. 12.8 ng/mL” value of the first is lower: 16.9 for the first, 17.8 for the second.

Going from B7 to B8, the “S/N at plasma conc. 12.8 ng/mL” value rises from 13.5 to 17.3.

B9 was tested, and the “S/N at plasma conc. 12.8 ng/mL” value was 17.1.

Going from B1 to B2, the “S/N at plasma conc. 25.6 ng/mL” value rises from 31.7 to 32.5.

Going from B3 to B4, the “S/N at plasma conc. 25.6 ng/mL” value rises from 30.8 to 30.9.

Compared with B5, B6 is higher in “S/N at plasma conc. 25.6 ng/mL” value: 30.7 for the first, 33.7 for the second.

First: B7
Second: B8
The “S/N at plasma conc. 25.6 ng/mL” value of the first is lower: 25.2 for the first, 31.2 for the second.

For B9, the “S/N at plasma conc. 25.6 ng/mL” value was 31.3.

Compared with B1, B2 is higher in “S/N at plasma conc. 51.2 ng/mL” value: 59 for the first, 60.8 for the second.

First: B3
Second: B4
The “S/N at plasma conc. 51.2 ng/mL” value of the first is higher: 57 for the first, 56.9 for the second.

First: B5
Second: B6
The “S/N at plasma conc. 51.2 ng/mL” value of the first is lower: 56.8 for the first, 64.6 for the second.

First: B7
Second: B8
The “S/N at plasma conc. 51.2 ng/mL” value of the first is lower: 48.3 for the first, 60 for the second.

With B9 the “S/N at plasma conc. 51.2 ng/mL” value was 57.7.
